# Where “and” joins values, the source holds several entries; their conditions need not be identical. Equal entries are not always repeated. Non-standard residues stand in square brackets, D forms with d. Residues, ends and D or L forms follow the SMILES beside them. No end group written: not given here. PEG3 = NCCOCCOCCOCCC(=O)O
# B1: murine DIG-IgG 19-11: murine <Dig> IgG1 kappa from mouse hybridoma clone 19-11; VL Seq. ID. NO. 1, VH Seq. ID. NO. 2 (antibody, listed as Mus musculus, V domains shown)
# VH: MNFVLSLIFLALILKGVQCEVQLVESGGGLVKPGGSLKLSCAVSGFTFSDYAMSWIRQTPENRLEWVASINIGATYAYYPDSVKGRFTISRDNAKNTLFLQMSSLGSEDTAMYYCARPGSPYEYDKAYYSMAYWGPGTSVTVSS
# VL: MSSAQFLGLLLLCFQGTRCDVQMTQSTSSLSASLGDRVTISCRASQDIKNYLNWYQQKPGGTVKLLIYYSSTLLSGVPSRFSGRGSGTDFSLTITNLEREDIATYFCQQSITLPPTFGGGTKLEIK
# notes: murine <Dig> IgG1 kappa from mouse hybridoma clone 19-11; ID; NO
# What was measured:
# [1] = test system: H322M (low surface Her2) and KPL4 (high surface Her2) cells; assay: CytoTox-Glo assay of DIG-peptide-<Her2>-<Dig> complexes; type: cell-based, human; conditions: 48 hours
# Excerpt: To analyze whether the <Her2>-<Dig>-Dig-Peptide complexes, and <IGF1R>-<Dig>-Dig-Peptide complexes mediate specific targeting of their payload towards antigen expressing cells, we made use of the fact that the FALLv1 and Fam5b peptides are cytotoxic. […] To measure the number of dead cells, the CytoTox-Glo assay (Promega Madison, Wis.) was used. To analyze the specificity of the targeting, two cell lines were used: H322M which have low levels of surface Her2 and KPL4 which have high levels of surface Her2.
# For these assays, H322M cells were seeded at a density of 15.000 cells per well in 96 well plates. The cells were incubated for 24 hours at 37° C., 5% CO2 and 85% humidity in RPMI with 10% FCS, Na+Pyrovate, L-Glutamine and NEAA mix. KPL4 cells were seeded at a density of 7.000 cells per well in 96 well plates. The cells were incubated for 24 hours at 37° C., 5% CO2 and 85% humidity in RPMI with 10% FCS, and L-Glutamine. […] The cells were incubated for further 48 hours. After this period, the cells were treated with the CytoTox-Glo-assay reagent according to the manufacturers instructions. In brief, this assay detects dead cells via the presence of a protease in the medium that cleaves a flurogenic peptide in the reagent. The luminescence of this assay therefore represents dead cells. The 96 well plates were then analyzed in a InfiniteF200 luminescence reader (Tecan Austria, Gröding).
# [2] = Excitation and emission spectra; type: physicochemical
# Excerpt: To evaluate whether digoxygenation of Cy5 alters its fluorescence features, we compared the excitation and emission spectra of Cy5 and compared it with the spectra of the newly generated Dig-Cy5 and with Dig-Cy5 within a complex with bispecific antibodies. […] We conclude that Dig-Cy5 and —complexes can be applied for antibody-mediated targeting and in vivo imaging.
# [3] = test system: CD22 positive Raji and Ramos cells; assay: FACS analysis with <CD22>-<DIG> and DIG-Cy5; type: cell-based; conditions: DIG-Cy5 66.4 nM
# Protocol: For these analyses we used CD22 positive Raji and Ramos cells and the bispecific <CD22>-<DIG> antibody. 3×10^5 cells per well of a 96-well-plate were incubated with 5 ng/ml of the <CD22>-<DIG> antibody in FACS buffer (PBS containing 5% FCS). After washing the cells were incubated with DIG-Cy5 in a final concentration of 66.4 nM. After another washing step cells were analysed with the FACS canto II (BD Biosciences).
# [4] = test system: IGF1R expressing tumors (H322M cells); assay: NIRF tumor imaging with Dig-Cy5 complexes, H322M xenograft; type: in vivo, mice; conditions: 30 min, i.v.
# Protocol: To analyze if the specific antigen binding functionality of the antibody-complexes can be utilized to specifically deliver imaging reagents to tumor cells, we performed Near Infrared Fluorescence Imaging Studies (NIRF) in vivo. […] These xenografts were either expressing the antigen Her2 (KPL4 cells) or the antigen IGF1R (H322M cells). Subsequently NIRF imaging was performed by using the Maestro system from CRI. Animals were placed in a measuring chamber and the fluorescence was measured over a defined spectral wavelength array, depending on the dye. Spectral information of each pixel of the obtained image was analyzed by a special software which allows to separate different pre-defined spectra, e.g. autoflourescence and the signal of the dye. Theses separated specific signals were quantified by the Maestro software in order to compare different samples.
# [5] = target: siRNA-DIG (Eg5-siRNA-DIG); assay: SPR (Biacore) binding to mono-digoxygenated siRNA; conditions: 25° C.
# Protocol: (§2) For that, binding properties of the recombinant <Dig> derivatives were analyzed by surface plasmon resonance (SPR) technology using a Biacore T100 or Biacore 3000 instrument (GE Healthcare Bio-Sciences AB, Uppsala). […] It allows a continuous real-time monitoring of ligand/analyte bindings and thus the determination of association rate constants (ka), dissociation rate constants (kd), and equilibrium constants (KD) in various assay settings. SPR-technology is based on the measurement of the refractive index close to the surface of a gold coated biosensor chip. Changes in the refractive index indicate mass changes on the surface caused by the interaction of immobilized ligand with analyte injected in solution. If molecules bind to immobilized ligand on the surface the mass increases, in case of dissociation the mass decreases. To perform the binding studies capturing anti-human IgG antibody was immobilized on the surface of a CM5 biosensor chip using amine-coupling chemistry. […]
# (§3) Anti-mouse IgG antibody was immobilized on the surface of a CM5 biosensor chip in the same fashion as described above. […] The samples to be analyzed were diluted in HBS-P (10 mM HEPES, pH 7.4, 150 mM NaCl, 0.005% Surfactant P20) and injected at a flow rate of 5 μl/min. […] Signals were detected at a rate of one signal per second.
# (§4) The samples to be analyzed were diluted in HBS-P and injected at a flow rate of 5 μl/min. […]
# [6] = test system: DIG-siRNA2349; assay: SPR study, binding to DIG-siRNA2349; conditions: analyte DIG-siRNA2349; listed as <DIG>M-19-11
# Protocol: (§1) For that, binding properties of the recombinant <Dig> derivatives were analyzed by surface plasmon resonance (SPR) technology using a Biacore T100 or Biacore 3000 instrument (GE Healthcare Bio-Sciences AB, Uppsala). This system is well established for the study of molecule interactions. It allows a continuous real-time monitoring of ligand/analyte bindings and thus the determination of association rate constants (ka), dissociation rate constants (kd), and equilibrium constants (KD) in various assay settings. SPR-technology is based on the measurement of the refractive index close to the surface of a gold coated biosensor chip. Changes in the refractive index indicate mass changes on the surface caused by the interaction of immobilized ligand with analyte injected in solution. If molecules bind to immobilized ligand on the surface the mass increases, in case of dissociation the mass decreases. To perform the binding studies capturing anti-human IgG antibody was immobilized on the surface of a CM5 biosensor chip using amine-coupling chemistry. Flow cells were activated with a 1:1 mixture of 0.1 M N-hydroxysuccinimide and 0.1 M 3-(N,N-dimethylamino)propyl-N-ethylcarbodiimide at a flow rate of 5 μl/min. […] A reference control flow cell was treated in the same way but with vehicle buffers only instead of the capturing antibody. […]
# [7] = test system: DIG-Myoglobin; assay: SPR study, binding to DIG-myoglobin
# Protocol: as §1, with “antibody. Surfaces were blocked with an injection of 1 M ethanolamine/HCl pH 8.5. To compare the binding of the humanized protein variants with that of the murine <Dig> IgG from the original hybridoma 19-11, capturing anti-mouse IgG antibody was immobilized on the surface of a CM5 biosensor chip in the same fashion as described above for the anti-human IgG antibody. To evaluate the functionality of the recombinant <Dig> derivatives, binding of the recombinant hu<Dig> modules, incl.” for “antibody.”
# [8] = target: siRNA-(2x)DIG (Eg5-siRNA-(2×)DIG); assay: SPR (Biacore) binding to bi-digoxygenated siRNA; conditions: 25° C.
# Protocol: as §2, §3, §4
# [9] = analyte DIG-Myoglobin, listed as <DIG>M-19-11
molecule,measurement,setting,value
CC[C@H](C)[C@H](NC(=O)[C@H](CCCCN)NC(=O)[C@H](CCC(=O)O)NC(=O)[C@H](CCCCN)NC(=O)[C@H](CO)NC(=O)[C@H](CCCCN)NC(=O)[C@H](CCCNC(=N)N)NC(=O)[C@H](Cc1ccccc1)NC(=O)[C@H](Cc1ccccc1)NC(=O)[C@H](CC(=O)O)NC(=O)CNC(=O)[C@H](CC(C)C)NC(=O)[C@H](CC(C)C)NC(=O)[C@H](C)NC(=O)[C@@H](N)Cc1ccccc1)C(=O)NCC(=O)N[C@@H](CCCCN)C(=O)N[C@@H](CCC(=O)O)C(=O)N[C@@H](Cc1ccccc1)C(=O)N[C@@H](CCCCN)C(=O)N[C@@H](CCCNC(=N)N)C(=O)N[C@H](C(=O)N[C@H](C(=O)N[C@@H](CCC(N)=O)C(=O)N[C@@H](CCCNC(=N)N)C(=O)N[C@H](C(=O)N[C@@H](CCCCN)C(=O)N[C@@H](CC(=O)O)C(=O)N[C@@H](Cc1ccccc1)C(=O)N[C@@H](CC(C)C)C(=O)N[C@@H](CCCNC(=N)N)C(=O)N[C@@H](CC(N)=O)C(=O)N[C@@H](CC(C)C)C(=O)N[C@H](C(=O)N1CCC[C@H]1C(=O)N[C@@H](CCCNC(=N)N)C(=O)N[C@H](C(=O)N[C@@H](CCC(=O)O)C(=O)N[C@@H](CO)C(N)=O)[C@@H](C)O)C(C)C)[C@@H](C)CC)C(C)C)[C@@H](C)CC [FALLv1],cytotoxicity of the <Her2>-<Dig> complex towards antigen expressing target cells compared to non-complexed peptide,[1],higher
Cy5 [reference compound],Emission wavelength (max.),[2],670 nm
"DIG-Fam5b: digoxigenin conjugate of Fam5b with TEG-spacer and amino-terminal cystein (C[PEG3]QHRYQQLGAGLKVLFKKTHRILRRLFNLAK; also: digoxigenin conjugate, attachment site not given here)","cytotoxicity when delivered by the <Her2>-<Dig> bispecific antibody, H322M compared to KPL4",[1],correlates with the levels of surface antigen
CC[C@H](C)[C@H](NC(=O)[C@H](CCCCN)NC(=O)[C@H](CCC(=O)O)NC(=O)[C@H](CCCCN)NC(=O)[C@H](CO)NC(=O)[C@H](CCCCN)NC(=O)[C@H](CCCNC(=N)N)NC(=O)[C@H](Cc1ccccc1)NC(=O)[C@H](Cc1ccccc1)NC(=O)[C@H](CC(=O)O)NC(=O)CNC(=O)[C@H](CC(C)C)NC(=O)[C@H](CC(C)C)NC(=O)[C@H](C)NC(=O)[C@H](Cc1ccccc1)NC(=O)[C@@H](N)CSC1CC(=O)N(CCNC(=O)CO[C@H]2CC[C@@]3(C)[C@H](CC[C@@H]4[C@@H]3C[C@@H](O)[C@]3(C)[C@@H](C5=CC(=O)OC5)CC[C@]43O)C2)C1=O)C(=O)NCC(=O)N[C@@H](CCCCN)C(=O)N[C@@H](CCC(=O)O)C(=O)N[C@@H](Cc1ccccc1)C(=O)N[C@@H](CCCCN)C(=O)N[C@@H](CCCNC(=N)N)C(=O)N[C@H](C(=O)N[C@H](C(=O)N[C@@H](CCC(N)=O)C(=O)N[C@@H](CCCNC(=N)N)C(=O)N[C@H](C(=O)N[C@@H](CCCCN)C(=O)N[C@@H](CC(=O)O)C(=O)N[C@@H](Cc1ccccc1)C(=O)N[C@@H](CC(C)C)C(=O)N[C@@H](CCCNC(=N)N)C(=O)N[C@@H](CC(N)=O)C(=O)N[C@@H](CC(C)C)C(=O)N[C@H](C(=O)N1CCC[C@H]1C(=O)N[C@@H](CCCNC(=N)N)C(=O)N[C@H](C(=O)N[C@@H](CCC(=O)O)C(=O)N[C@@H](CO)C(N)=O)[C@@H](C)O)C(C)C)[C@@H](C)CC)C(C)C)[C@@H](C)CC (stereo partly drawn) [Dig-FALLv1],"cytotoxicity when delivered by the <Her2>-<Dig> bispecific antibody, H322M compared to KPL4",[1],more toxic to cells expressing higher levels of surface antigen
CC[C@H](C)[C@H](NC(=O)[C@H](CCCNC(=N)N)NC(=O)[C@H](Cc1c[nH]cn1)NC(=O)[C@@H](NC(=O)[C@H](CCCCN)NC(=O)[C@H](CCCCN)NC(=O)[C@H](Cc1ccccc1)NC(=O)[C@H](CC(C)C)NC(=O)[C@@H](NC(=O)[C@H](CCCCN)NC(=O)[C@H](CC(C)C)NC(=O)CNC(=O)[C@H](C)NC(=O)CNC(=O)[C@H](CC(C)C)NC(=O)[C@H](CCC(N)=O)NC(=O)[C@H](CCC(N)=O)NC(=O)[C@H](Cc1ccc(O)cc1)NC(=O)[C@H](CCCNC(=N)N)NC(=O)[C@H](Cc1c[nH]cn1)NC(=O)[C@@H](N)CCC(N)=O)C(C)C)[C@@H](C)O)C(=O)N[C@@H](CC(C)C)C(=O)N[C@@H](CCCNC(=N)N)C(=O)N[C@@H](CCCNC(=N)N)C(=O)N[C@@H](CC(C)C)C(=O)N[C@@H](Cc1ccccc1)C(=O)N[C@@H](CC(N)=O)C(=O)N[C@@H](CC(C)C)C(=O)N[C@@H](C)C(=O)N[C@@H](CCCCN)C(=O)O [Fam5b] (H-QHRYQQLGAGLKVLFKKTHRILRRLFNLAK-OH),cytotoxicity of the <Her2>-<Dig> complex towards antigen expressing target cells compared to non-complexed peptide,[1],higher
CCN1c2ccc(S(=O)(=O)O)cc2C(C)(C)C1/C=C/C=C/C=C1\N(CCCCCC(=O)NCCNC(=O)CO[C@H]2CC[C@@]3(C)[C@H](CC[C@@H]4[C@@H]3C[C@@H](O)[C@]3(C)[C@@H](C5=CC(=O)OC5)CC[C@]43O)C2)c2ccc(S(=O)(=O)O)cc2C1(C)C (stereo partly drawn) [Dig-Cy5],Emission wavelength (max.),[2],670 nm
same,binding to Raji or Ramos cells (FACS),[3],hardly any binding
same,tumor visualization by NIRF,[4],no tumor specific fluorescence
B1,Kd,[5],0.269 nM
same,ka,[6],3.27e+06 M⁻¹ s⁻¹ and 2.26e+06 M⁻¹ s⁻¹
same,kd,[6],0.000903 s⁻¹ and 0.000838 s⁻¹
same,affinity to DIG-myoglobin relative to <DIG>-hu2 and disulfide-stabilized <DIG> scFv,[7],about a hundred fold better
same,ka,[7]; [9],1.75e+06 M⁻¹ s⁻¹ and 2.28e+06 M⁻¹ s⁻¹
same,kd,[7]; [9],0.000676 s⁻¹ and 0.000675 s⁻¹
same,Kd,[8],0.017 nM
